# Data from US20100184651.
# Tested on: VIP-BH3 BID fusion protein
# Sequence (chain, as listed by the source): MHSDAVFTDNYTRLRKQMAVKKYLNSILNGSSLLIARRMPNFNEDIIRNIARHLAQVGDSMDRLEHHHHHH
# recombinant human cathepsin D, sequence (chain, as listed by the source): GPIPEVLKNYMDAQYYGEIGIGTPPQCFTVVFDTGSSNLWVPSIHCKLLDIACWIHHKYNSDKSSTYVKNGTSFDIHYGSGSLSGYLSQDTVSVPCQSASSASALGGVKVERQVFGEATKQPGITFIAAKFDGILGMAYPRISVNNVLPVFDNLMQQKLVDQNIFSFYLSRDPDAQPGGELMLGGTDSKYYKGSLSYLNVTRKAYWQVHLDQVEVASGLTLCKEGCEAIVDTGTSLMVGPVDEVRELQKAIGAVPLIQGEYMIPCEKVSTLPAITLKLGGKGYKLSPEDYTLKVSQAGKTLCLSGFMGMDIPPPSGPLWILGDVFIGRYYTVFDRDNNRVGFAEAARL
substance,measurement,value
recombinant human cathepsin D,"cleavage of fusion protein by cathepsin D at ˜400:1 (w/w), followed by mass spectrometry",The first cleavage occurred at the linker by around 30 minutes of treatment with the protease
